Source: patent publication US20060140946A1

Target: human lymphotoxin (TNFβ) (human) (UniProt P01374)
Assay: cell-based or functional assay

Sequence of human lymphotoxin (TNFβ) (human) (P01374 35-205 limits assumed): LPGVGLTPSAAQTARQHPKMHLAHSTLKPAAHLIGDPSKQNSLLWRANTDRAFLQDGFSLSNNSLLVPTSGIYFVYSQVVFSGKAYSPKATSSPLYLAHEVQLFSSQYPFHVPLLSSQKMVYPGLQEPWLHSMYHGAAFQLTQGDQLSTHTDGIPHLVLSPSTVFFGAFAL

p75P-sf2 TNF receptor/IgG1 fusion protein (from UniProt P20333 23-204) (Fc fusion)
concentration required to half-inhibit human TNFβ at 2 pM, WEHI 164 cytotoxicity assay: 31 pM
